Assay [1] addresses recombinant human FcγRI, histidine-tagged (human) (UniProt P12314). Put plainly: SPR. On the technique in general: In SPR one partner is held on a chip, and binding of the other changes the refractive index at the surface.
Assay [2] has as its target histidine-tagged mouse FcγRI (mouse) (UniProt P26151). The assay is described as follows: SPR; Biacore T200; His-tagged muFcγRI (2.4 nM) captured on an anti-histidine antibody CM5 chip; pertuzumab or conjugates as analyte, association and dissociation 120 s each; steady-state analysis.
The target of assay [3] is recombinant human FcγRI, histidine-tagged (human) (UniProt P12314). Put plainly: SPR; Biacore T200; His-tagged huFcγRI (0.8 nM) captured on an anti-histidine antibody CM5 chip; pertuzumab or conjugates 0.78-100 nM as analyte, 5 min association, 5 min dissociation, 30 μL/min; HBS-P+ with 50 μM EDTA; 1:1 fit (RI set to 0).

Sequence of UniProt P12314 (P12314 16-292): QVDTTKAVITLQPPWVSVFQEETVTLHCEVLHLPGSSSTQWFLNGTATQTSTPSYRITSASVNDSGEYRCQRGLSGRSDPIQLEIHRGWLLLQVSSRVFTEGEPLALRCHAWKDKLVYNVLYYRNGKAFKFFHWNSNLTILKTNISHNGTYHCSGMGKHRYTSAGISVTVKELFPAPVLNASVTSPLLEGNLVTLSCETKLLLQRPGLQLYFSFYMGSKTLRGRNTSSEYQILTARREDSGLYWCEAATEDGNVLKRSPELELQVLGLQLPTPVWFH
Sequence of UniProt P26151 (P26151 25-297): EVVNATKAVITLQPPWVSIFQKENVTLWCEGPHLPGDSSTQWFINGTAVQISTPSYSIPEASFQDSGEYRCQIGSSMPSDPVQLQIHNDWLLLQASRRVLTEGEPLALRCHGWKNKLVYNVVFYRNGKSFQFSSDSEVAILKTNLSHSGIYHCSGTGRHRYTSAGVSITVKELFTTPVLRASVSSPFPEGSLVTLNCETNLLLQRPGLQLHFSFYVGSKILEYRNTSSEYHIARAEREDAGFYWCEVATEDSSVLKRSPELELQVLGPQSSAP

Regarding DFO-^nsspertuzumab, the koff (commonly the first-order rate constant of dissociation) in assay [1] was 0.00156 s⁻¹.
With DFO-^nsspertuzumab (antibody), in assay [2], the dissociation constant (Kd) – broadly, the equilibrium constant for the complex coming apart – turned out to be 250 nM. In addition, in assay [3], the dissociation constant (Kd) stood at 4.1 nM and the interaction half-time came to 7.4 min.
As for DFO-^sspertuzumab-EndoS, the koff in assay [1] stood at 0.00387 s⁻¹.
In assay [2], DFO-^sspertuzumab-EndoS (antibody) came in with a Kd of 1100 nM. For the same substance, in assay [3], the Kd turned out to be 17.4 nM and the interaction half-time is 3 min.
In assay [2], DFO-^sspertuzumab-βGal (antibody) came in with a Kd of 210 nM. The interaction half-time in assay [3] was determined as 8 min.
For native pertuzumab (antibody), in that order: 250 nM and 7.3 min.

The values are drawn from PMC6993239.
